Source: PMC5387032 (Photosynthesis Research, 2017)

T1: RbcL from Thermosynechococcus elongatus, made in E. coli (Thermosynechococcus vestitus (strain …, UniProt Q8DIS5))
T1 chain: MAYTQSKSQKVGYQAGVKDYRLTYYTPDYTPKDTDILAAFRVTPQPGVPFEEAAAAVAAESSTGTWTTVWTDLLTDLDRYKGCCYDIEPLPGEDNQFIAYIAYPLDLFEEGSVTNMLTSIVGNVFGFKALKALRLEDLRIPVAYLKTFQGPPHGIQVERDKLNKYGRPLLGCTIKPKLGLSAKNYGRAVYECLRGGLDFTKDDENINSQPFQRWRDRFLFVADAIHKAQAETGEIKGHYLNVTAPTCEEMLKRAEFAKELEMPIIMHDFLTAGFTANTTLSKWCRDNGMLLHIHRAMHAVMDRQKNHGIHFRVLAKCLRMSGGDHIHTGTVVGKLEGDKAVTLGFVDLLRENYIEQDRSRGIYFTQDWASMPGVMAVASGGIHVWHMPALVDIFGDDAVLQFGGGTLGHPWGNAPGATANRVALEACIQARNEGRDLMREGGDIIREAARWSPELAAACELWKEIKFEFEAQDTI

B1: RbcL from Thermosynechococcus elongatus, made in E. coli (natural protein, UniProt Q8DIS5 1-475, looked up)
chain: T1 chain
notes: Ribulose-1,5-bisphosphate carboxylase/oxygenase large subunit, Thermosynechococcus elongatus; rbcL gene in the previously described pUC18rbcL plasmid (Tarnawski et al. 2008); also called RbcLTe; Te; source: E. coli Rosetta, expressed alone or co-expressed with raf1 or rbcX from Synechocystis, in crude extract; complexes purified (ammonium sulfate, Q-Sepharose)
B2: RAF1 from Synechocystis sp. PCC 6803, untagged, made in E. coli (protein)
chain: MTHSPESNPTVSAAEAAELIRSLLHKEGTWVDWGKKCQQLQKAGYGAEEIFEQSGFQKVQQNLVIVASQVYESLVKQGIDETVLSYYRGPKSDVLYELRILNHQQRAIAAVEAQQKNLAADEAKELAKAFQEFGYLSQLPEGFTDHPGDALAYQCWKLARQKKNLPERTRLIVKGLKFAHSPNARQAIEKLLTDLTAQPSRKAPLVPVFRLEEDQEAARLIPVAGTFPLQPQAVQAVQSLEQVEPFGLVSYQGEGAVVPVPQWQAILTAEDPVAIFCPAGQVSESLARKDEQVLVVVDRSKKIWNDGSYFLLNQGETVAIQWCETEPEREILAQVVLVLRPKKIFDANNLREPWQMDD

Legend:
[1] = biological target: the molecule itself; test: native gel or EMSA; raf1 from Synechocystis co-expressed with rbcL genes in E. coli (or rbcL alone); crude extracts separated by native PAGE and probed with anti-RbcL or anti-RAF1 antibodies
[2] = biological target: T1, RbcL from Thermosynechococcus …; test: co-expression in E. coli with co-purification of the complex; native PAGE

Row | Binder | stoichiometry N [1] | binding result [2]
1 | B1 | 8 | –
2 | B2 | – | binds
